Experimental findings from US20240228562A1 (Pieris, published 2024) are described below.

Changes are numbered by the printed parent chain.

Assay [1] has as its target T1, recombinant human CTGF protein (R&D Systems, SEQ ID NO: 79) (human, UniProt P29279 27-349).
T1 construct: Bought; also called human CTGF/CNN2; huCTGF
T1 sequence: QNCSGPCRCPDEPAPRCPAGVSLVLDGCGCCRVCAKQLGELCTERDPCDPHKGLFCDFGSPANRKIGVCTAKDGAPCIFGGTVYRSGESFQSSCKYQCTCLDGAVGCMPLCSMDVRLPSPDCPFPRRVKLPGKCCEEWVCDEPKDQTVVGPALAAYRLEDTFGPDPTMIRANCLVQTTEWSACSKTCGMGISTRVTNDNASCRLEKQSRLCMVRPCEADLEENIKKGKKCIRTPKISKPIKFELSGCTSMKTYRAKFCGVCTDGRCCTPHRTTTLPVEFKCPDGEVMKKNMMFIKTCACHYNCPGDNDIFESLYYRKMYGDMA
As to the kind of experiment: ELISA, coated human CTGF. The protocol: (§1) Binding of fusion proteins was tested by an ELISA assay. In detail, a 384-well plate suitable for fluorescence measurements (Greiner FLUOTRAC™ 600, black flat bottom, high-binding) was coated with 20 μl of human CTGF (R&D Systems) at a concentration of 1 μg/ml in PBS over night at 4° C. After washing with PBS with 0.05% Tween 20, wells were blocked with 100 μl blocking buffer containing 0.1% Tween 20 and 2% BSA (PBS-T/BSA) for 1 h at room temperature. 20 μl of serially diluted muteins were incubated in PBS-T/BSA for 1 h at room temperature (RT).
The residual supernatants were discarded and 20 μl HRP-labeled anti-NGAL or anti-His-Tag antibody was added at a predetermined optimal concentration in PBS-T/BSA and incubated for 1 h at RT. After washing, 20 μl fluorogenic HRP substrate (QuantaBlu, Thermo) was added to each well, and the reaction was allowed to proceed for 2 to 60 minutes. The fluorescence intensity of every well on the plate was read using a fluorescence microplate reader (Tecan). Curve fitting was performed using GraphPad Prism 7 or 8 software.

For assay [2], the target named is T2, huCYR61 (human, UniProt O00622 25-381, limits assumed).
T2 construct: also called human CYR61 (CCN1)
T2 sequence (looked up): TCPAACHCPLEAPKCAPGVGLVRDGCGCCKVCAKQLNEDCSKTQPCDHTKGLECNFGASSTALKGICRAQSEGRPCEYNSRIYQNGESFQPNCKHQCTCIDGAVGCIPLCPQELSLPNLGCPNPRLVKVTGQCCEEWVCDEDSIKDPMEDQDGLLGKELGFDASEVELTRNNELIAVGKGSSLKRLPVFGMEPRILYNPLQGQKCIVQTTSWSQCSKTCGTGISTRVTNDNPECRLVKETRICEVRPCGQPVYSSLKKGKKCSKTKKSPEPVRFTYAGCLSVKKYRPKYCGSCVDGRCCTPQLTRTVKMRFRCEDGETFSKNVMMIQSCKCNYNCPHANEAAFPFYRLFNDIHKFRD
The assay is described as follows: ELISA, coated CCN protein. The protocol:
as §1, with “muteins to closely related” for “fusion”, “proteins of CTGF” for “proteins”, “or the other members of the CCN protein family” for “(R&D Systems)”, “muteins starting at 1000 nM” for “muteins”
(§2) The residual supernatants were discarded and 20 μl HRP-labeled anti-NGAL or anti-Strep-Tag antibody was added at a predetermined optimal concentration in PBS-T/BSA and incubated for 1 h at RT. After washing, 20 μl fluorogenic HRP substrate (QuantaBlu, Thermo) was added to each well, and the reaction was allowed to proceed for 2 to 60 minutes. The fluorescence intensity of every well on the plate was read using a fluorescence microplate reader (Tecan). When the signal for human CTGF approached saturation, the cross reactivity to the other proteins was assessed.

In assay [3] the target is T3, huNOV (human, UniProt P48745 32-357, limits assumed).
T3 construct: also called human NOV (CCN3)
T3 sequence (looked up): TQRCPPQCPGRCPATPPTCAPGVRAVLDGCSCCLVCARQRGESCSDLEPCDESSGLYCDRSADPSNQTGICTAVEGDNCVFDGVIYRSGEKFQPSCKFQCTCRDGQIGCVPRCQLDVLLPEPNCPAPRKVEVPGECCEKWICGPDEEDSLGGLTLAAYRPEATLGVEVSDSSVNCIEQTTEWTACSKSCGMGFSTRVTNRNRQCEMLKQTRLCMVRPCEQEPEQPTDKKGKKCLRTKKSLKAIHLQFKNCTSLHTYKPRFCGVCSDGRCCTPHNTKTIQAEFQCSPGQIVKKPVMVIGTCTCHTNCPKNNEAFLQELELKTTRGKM
As to the kind of experiment: ELISA, coated CCN protein. The procedure: as §1, with “muteins to closely related” for “fusion”, “proteins of CTGF” for “proteins”, “or the other members of the CCN protein family” for “(R&D Systems)”, “muteins starting at 1000 nM” for “muteins”
as §2

Assay [4] addresses T4, huWISP-1 (human, UniProt O95388 23-367, limits assumed).
T4 construct: also called human WISP-1 (CCN4)
T4 sequence (looked up): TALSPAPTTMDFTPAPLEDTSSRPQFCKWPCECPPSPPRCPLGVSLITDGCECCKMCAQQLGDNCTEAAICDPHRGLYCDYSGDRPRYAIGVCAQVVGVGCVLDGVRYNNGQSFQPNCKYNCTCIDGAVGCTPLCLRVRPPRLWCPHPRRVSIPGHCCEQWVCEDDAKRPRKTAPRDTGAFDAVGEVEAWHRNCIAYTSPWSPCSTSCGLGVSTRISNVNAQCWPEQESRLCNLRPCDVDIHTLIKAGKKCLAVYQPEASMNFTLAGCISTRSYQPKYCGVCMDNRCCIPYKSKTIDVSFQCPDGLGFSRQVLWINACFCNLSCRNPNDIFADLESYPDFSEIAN
As to the kind of experiment: ELISA, coated CCN protein. The protocol:
as §1, with “muteins to closely related” for “fusion”, “proteins of CTGF” for “proteins”, “or the other members of the CCN protein family” for “(R&D Systems)”, “muteins starting at 1000 nM” for “muteins”
as §2

Assay [5] has as its target T5, huWISP-2 (human, UniProt O76076 24-250, limits assumed).
T5 construct: also called human WISP-2 (CCN5)
T5 sequence (looked up): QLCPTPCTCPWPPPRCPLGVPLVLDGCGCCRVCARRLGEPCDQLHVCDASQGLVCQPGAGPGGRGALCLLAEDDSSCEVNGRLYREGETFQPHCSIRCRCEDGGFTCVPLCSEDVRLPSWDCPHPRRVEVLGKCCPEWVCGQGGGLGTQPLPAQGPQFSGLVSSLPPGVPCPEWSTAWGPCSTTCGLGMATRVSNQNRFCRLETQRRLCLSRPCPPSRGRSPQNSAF
As to the kind of experiment: ELISA, coated CCN protein. The protocol:
as §1, with “muteins to closely related” for “fusion”, “proteins of CTGF” for “proteins”, “or the other members of the CCN protein family” for “(R&D Systems)”, “muteins starting at 1000 nM” for “muteins”
as §2

Assay [6] deals with T6, huWISP-3 (human, UniProt O95389 24-354, limits assumed).
T6 construct: also called human WISP-3 (CCN6)
T6 sequence (looked up): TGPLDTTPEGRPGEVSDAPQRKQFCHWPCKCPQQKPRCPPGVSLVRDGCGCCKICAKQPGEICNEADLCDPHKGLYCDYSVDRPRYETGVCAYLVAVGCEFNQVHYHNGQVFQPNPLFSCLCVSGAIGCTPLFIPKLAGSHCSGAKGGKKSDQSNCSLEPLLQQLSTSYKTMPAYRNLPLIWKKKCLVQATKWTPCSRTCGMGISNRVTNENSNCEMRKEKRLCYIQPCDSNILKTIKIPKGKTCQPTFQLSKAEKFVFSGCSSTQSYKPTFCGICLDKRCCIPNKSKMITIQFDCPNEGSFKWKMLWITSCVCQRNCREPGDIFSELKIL
The assay is described as follows: ELISA, coated CCN protein. The protocol: as §1, with “muteins to closely related” for “fusion”, “proteins of CTGF” for “proteins”, “or the other members of the CCN protein family” for “(R&D Systems)”, “muteins starting at 1000 nM” for “muteins”
as §2

Assay [7] concerns the target T1, recombinant human CTGF protein (R&D …). The assay is described as follows: HTRF, 1 nM biotinylated human CTGF. The protocol:
Binding of some fusion proteins was tested by a Homogeneous Time Resolved Fluorescence (HTRF assay). In detail, 1 nM of biotinylated human CTGF (R&D Systems) was incubated for 1 h with a titration of some lipocalins starting at 5 nM in 384 Flat Bottom White Polystyrol microtiter plate (Greiner). Samples were diluted in PBS containing 0.1% Tween 20 and 2% BSA. As donor, Streptavidin-Terbium at a concentration of 0,006 μg/mL was used, the acceptor was 0.2 μg/mL anti-His-d2 (both CisBio). After another 1 h of incubation, the fluorescence intensity of the donor and acceptor on the plate was read using a fluorescence microplate reader M1000 (Tecan) with the standard settings recommended by CisBio. The calculated ratio of signals was used for the curve fitting performed in GraphPad Prism 7 software.

For assay [8], the target named is T7, recombinant human CTGF-Fc protein (Creative Biomart) (human).
T7 construct: Bought; also called human CTGF with a human IgG1 Fc Tag
The assay is described as follows: SPR (Biacore); B = binding without determination of kinetics constants. The procedure: The binding of exemplary lipocalin muteins to human (Creative Biomart), cynomolgus, rat (R&D Systems) and mouse CTGF (Abbexa) was determined by SPR using a Biacore instrument (Cytiva, formerly GE Healthcare). Some targets were fused to a human IgG1 Fc tag, and captured via the anti-human IgG antibody kit, others were directly immobilized.
For some measurements, human CTGF with a human IgG1 Fc Tag or rat or murine CTGF without a tag were directly immobilized to a CM5 Chip. The carboxyl groups on the chip were activated using 1-ethyl-3-(3-dimethylaminopropyl)-carbodiimide (EDC) and N-hydroxysuccinimide (NHS). […] Residual non-reacted NHS-esters were blocked by passing a solution of 1 M ethanolamine across the surface. The reference channel was activated/deactivated. For the capture setting, targets with an IgG Fc Tag at 0.25-2.5 μg/mL in HBS-EP+ buffer were captured by the anti-human IgG-Fc antibody at the chip surface for 180 s at a flow rate of 10 μL/min.
The binding assay was carried out with a contact time of 180 s, a dissociation time of 900-3600 s and a flow rate of 30 μL/min. All measurements were performed at 25° C. […] For the directly immobilized targets, the same regeneration conditions were used. Prior to the protein measurements, three startup cycles were performed for conditioning purposes.

B1: fusion protein of SEQ ID NO: 74 (designed binder)
chain: QDSTSDLIPAPPLSKVPLQQNFQDNQFQGKWYVVGLAGNAILREDKQPAKMFATIYELKEDKSYDVTSVRFEAKSCKYTIKTFVPGSQPGEFTAGYIKSAPGQTSTLVRVVSTNYNQHAMVFFKHVTQNREIFVITLYGRTKELTSELKENFIRFSKSLGLPENHIVFPVPIDQCIDGGGGGSGGGGSGGGGSQDSTSDLIPAPPLSKVPLQQNFQDNQFQGKWYVVGWAGNVKLREDKQPQKMSATIYELKEDKSYDVTEVVFEQKKCHYIIKTFVPGSQPGEFTAGDIKSPPGYTSSLVRVVSTNYNQHAMVFFKKVSQNREFFWITLYGRTKELTSELKENFIRFSKSLGLPENHIVFPVPIDQCIDG
notes: not shown: C-terminal His-tag
For the molecule B1, the EC50 in assay [1] was found to be 0.26 nM; in assay [7], 0.59 nM. The binding result in assay [2], in assay [3], in assay [4], in assay [5] and in assay [6] was “no binding (tested: dilutions starting at 1000 nM)” throughout.

B2: fusion protein of SEQ ID NO: 76 (designed binder)
chain: B1 chain with Q242L
notes: not shown: C-terminal His-tag
As for B2, the EC50 in assay [1] came out at 0.24 nM; in assay [7] it was 0.62 nM. The binding result in assay [2], in assay [3], in assay [4], in assay [5] and in assay [6] was “no binding (tested: dilutions starting at 1000 nM)” in each case.

B3: lipocalin mutein of SEQ ID NO: 17 (designed binder)
chain: QDSTSDLIPAPPLSKVPLQQNFQDNQFQGKWYVVGLAGNAILRTDKQPAKMFATIYELKEDKSYDVTSVRFEAKSCVYTSKTFVPGSQPGEFTAGNIKSAPGQTSTLVRVVSTNYNQHAMVFFKHVSQNREFFVITLYGRTKELTSELKENFIRFSKSLGLPENHIVFPVPIDQCIDG
notes: also called hNGAL mutein; not shown: C-terminal His-tag
B3: the binding result in assay [8] is “binds”.

B4: lipocalin mutein of SEQ ID NO: 20 (designed binder)
chain: B3 chain with T44E, V77S, S80I, F123A, H125A, S127Q, Q128L, F132H, V134F
notes: as for B3
As for B4, in assay [8], the binding result is reported as “binds”.
